Test results reported in the supplement of paper PMC12042874.
± gives the uncertainty stated by the source.

Experiment: amyloid nucleation score (Sup35N fusion, yeast selection) (log enrichment); library NNK2; higher = more nucleation; inactive = no reads after selection
Procedure, shortened: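 Peptides of 20 random codons fused to Sup35N were expressed in psi-negative yeast, induced 24 hours with 100 μM copper sulfate, then grown 7 days at 30°C on medium lacking adenine and uracil. Input and output plasmid inserts were Illumina-sequenced. Nucleation score is the DiMSum log enrichment of output over input reads, centred on the mode score of non-aggregating sequences, excluding sequences with under 100 input reads. Random libraries had three technical output replicates.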

| Substance | amyloid nucleation score |
| --- | --- |
| NYAPGFTWFSMTNKKDFNVS | inactive |
| NYCRTIFYYCAMIYFPCLAE | 1.77 ± 0.22 |
| NYDSSDLTLFDVSRRPLLER | inactive |
| NYFGKLLWLSLHDTCIVTF | inactive |
| NYVCWISGTTGLVM | -0.319 ± 0.76 |
| NYWWYVPW | 0.527 ± 0.51 |
| NYYCFQIRMLENNEEVFGIG | inactive |
| PAERSCGQCFQEFSWY | 0.102 ± 1.1 |
| PATVVILS | 1.23 ± 0.45 |
| PCLMVIRRWMITVFYQKLSG | 0.181 ± 0.2 |
| PCLRKNRYRLWLYTMVIQTQ | 0.806 ± 0.32 |
| PCRVYHLCNYKLAWRKGGWL | 0.927 ± 0.2 |
| PCSRPTLLPCHCGTTTTSHI | 2.4 ± 0.1 |
| PCVLKLRSSSKSISCSWGVS | 3.85 ± 0.074 |
| PDFLAVGHVSTFVHFTVETG | 1.16 ± 0.38 |
| PDLCEFLMLYMMITLNFCIN | -0.214 ± 1 |
| PEKTFICCLAVRDMQNRGVS | -0.032 ± 1.1 |
| PFILLGTPELVTNGEHAERG | 0.647 ± 0.66 |
| PFPSPSDSGTVAA | 0.737 ± 0.54 |
| PFQVFILHYA | 6.356 ± 0.042 |
| PGHSWMMSDDPDRYMNNLTV | -0.053 ± 0.79 |
| PGTFFSLSKWWFIDGVTEPG | 0.178 ± 0.77 |
| PGYNSFLWWAAME | -0.271 ± 0.34 |
| PHDGRNWFSVSDLMIGSDVG | 0.505 ± 0.36 |
| PHLEGVSCVVVKHQLRS | 0.82 ± 0.17 |

| Substance | amyloid nucleation score |
| --- | --- |
| PHSLVLSGWHNLDAFFNATL | inactive |
| PHVRTFRRFRWMY | -0.251 ± 0.39 |
| PIDKSVAVLDRREMSDQRIN | -0.753 ± 0.34 |
| PILGGEFDAGWRNFLFWKGW | 0.448 ± 0.66 |
| PIYCINRFDNWYLL | 5.94 ± 0.041 |
| PKGNSRYMRLIFDAQLSYTG | 1.25 ± 0.13 |
| PKIMKFGKCYTP | 0.065 ± 0.28 |
| PKPLVGMLCCHSMTRGKVTL | 3.28 ± 0.07 |
| PKSHFSRFGYYKVFQRSGRS | -0.92 ± 1.1 |
| PKSYWLSISRLKPVSQYYLR | 1.21 ± 0.24 |
| PLDGEIRREHVLAYEE | -0.454 ± 0.48 |
| PLHHSLRTYVALGLR | 0.306 ± 0.65 |
| PLHRWLQDR | -0.037 ± 0.79 |
| PLLFTWAVLINALWVKSTPG | -0.19 ± 1 |
| PLVAMGMIINNI | -1.74 ± 0.48 |
| PLYEELVWGRFRLMVYTGRF | -0.193 ± 0.76 |
| PMFCSLVLRI | -0.383 ± 0.41 |
| PMRMKFCQWLFHPP | -0.983 ± 0.61 |
| PNGFVFSCNRSPMAGMGIDE | -2.14 ± 1.1 |
| PNMGLVNCRRNFCCRLWRIC | -0.469 ± 1.1 |
| PNNINRFRRSYFY | -1.14 ± 0.49 |
| PNSSNPNPMRLVFRSMSFRL | 0.269 ± 0.64 |
| PNVCKLYMWQFGTLNQAPQR | 8.399 ± 0.065 |
| PPVMFLRWCVQAGSPWTNHC | -0.105 ± 1.1 |
| PQVNPYLNLCRLTQDMLLHR | 0.832 ± 0.15 |

| Substance | amyloid nucleation score |
| --- | --- |
| PRKDLPEYSLYSDLEPLVCN | -1.25 ± 0.62 |
| PRLNISLVMCNMFVGRGRFH | 8.705 ± 0.039 |
| PRRNTADCIGCTDRTGRRRC | 0.6 ± 0.39 |
| PRVRSAVQSLRGVKYCLGRR | -0.531 ± 0.63 |
| PSCFQDYKWQMWQLTRAWNF | -0.758 ± 0.55 |
| PSGFRSLLFEVHHFSRWAYD | 0.691 ± 0.15 |
| PSKPC | -1.72 ± 0.75 |
| PSLTVPGVSRYCFS | -1.29 ± 0.75 |
| PSLVRRNTSLCL | 0.325 ± 0.41 |
| PSVFEGRK | -0.843 ± 0.63 |
| PSVKIRFQVAYWLYRSLMMS | 0.877 ± 0.55 |
| PTRKSIYSLPRARSLIPQNT | -1.26 ± 1.1 |
| PTSNPSQRSRQRHQ | 0.619 ± 0.81 |
| PTSWFRSNMKWFYPVSQPHW | -0.434 ± 0.64 |
| PTVSLKDISGWIKPVRYLNG | 0.26 ± 0.25 |
| PVIQYVTSG | -0.257 ± 0.5 |
| PVLCVYFSIYN | 8.151 ± 0.054 |
| PVLTYFKLQLMM | 2.23 ± 0.066 |
| PVSGGVNFNNRLLITWRAFW | 0.885 ± 0.58 |
| PWYLRVSEHHKPWEPENWG | 0.552 ± 0.32 |
| PYWFRFLSYVQMLEYFCAPV | -0.764 ± 0.36 |
| PYYKAGGYMVMVHLSRLFLL | -0.882 ± 0.47 |
| QCAVDSPYDIRKLRR | -0.086 ± 0.39 |
| QCGGIGFLILLNVCGDGLWI | 4.37 ± 0.092 |
| QCVKLNTNVLCTVSDYNARG | 1.2 ± 0.11 |

| Substance | amyloid nucleation score |
| --- | --- |
| QCYIVCFICSRYTNQVKLLY | 1.38 ± 0.14 |
| QDKYTSEECESRFVTYETVV | 0.695 ± 0.57 |
| QEVSIKSFLRKYLLCYTMML | -1.05 ± 0.44 |
| QFFRPRDVRERAEWNLAKLV | 2.61 ± 0.12 |
| QFFTLFDVSRRLHFNTWLRL | -1.14 ± 0.64 |
| QFHADSRQGFNVSEMLCWDG | -0.393 ± 0.49 |
| QFSLSFSDFCKSLW | 6.287 ± 0.03 |
| QFTCYTVYNGYWA | 3.28 ± 0.15 |
| QGCMVSRNRVQHVVGSGLRW | 0.727 ± 0.38 |
| QGFYDGQPV | 0.203 ± 0.5 |
| QGGLDRMYGSDVVYFKDTYP | 0.379 ± 0.54 |
| QGIRALRLYKFLTTSLILLI | -1.42 ± 1.1 |
| QGLCRV | 4 ± 0.069 |
| QGLIFVSLFRCCSLCRQYTD | 2.72 ± 0.18 |
| QGPHARRHPTFRHKLYVLVI | 3.54 ± 0.099 |
| QGRRISKLC | -1.39 ± 1 |
| QIACDCNLGGKWFTDMCYFA | -0.94 ± 0.55 |
| QIFRLDFDARDSWAKMLESL | 0.536 ± 0.12 |
| QIIVLALMMWMGCRRRMERK | 0.414 ± 0.65 |
| QILWYWGREVFSRRDRFCSV | 1 ± 0.68 |
| QKGYN | inactive |
| QKLLWCYACNVMRARSGSGT | 7.18 ± 0.044 |
| QKWVF | -0.76 ± 0.31 |
| QLAYNEDMSVVGFCYIWYYG | 6.456 ± 0.048 |
| QLCFA | -0.031 ± 0.47 |

| Substance | amyloid nucleation score |
| --- | --- |
| QLFTMDN | -0.459 ± 0.78 |
| QLRGLVL | 0.704 ± 0.44 |
| QLRVYEKFKWCQREWRMDRF | 4.623 ± 0.034 |
| QLSFPSVTDLNRLAIIMLRV | 1.13 ± 0.4 |
| QLVGMD | 0.868 ± 0.27 |
| QLVNMRTCLLSRDLRLLELL | -0.318 ± 0.45 |
| QLWMTQTRTPSSKIRSKP | 0.641 ± 0.74 |
| QLYLWHCGFLTTDISGSNSS | -0.713 ± 0.63 |
| QLYYMKF | 5.685 ± 0.042 |
| QMEDSMYLNALRGVSWVTKL | inactive |
| QNRLLDFFSEPTSRS | -1.16 ± 1.1 |
| QQGYVTLSNFCGRA | -0.292 ± 0.5 |
| QQLLSMLLFNFQYGCARLYC | 0.072 ± 0.44 |
| QQYPWYWIFIFNIYKYPSVS | 0.475 ± 0.42 |
| QRLYPFYCIGYYITMYVVHC | 2.45 ± 0.13 |
| QRPRGLNLRYTDTRWIFYGP | 4.37 ± 0.045 |
| QRSNGTNYHPPYKMKISHRP | inactive |
| QRYWSAYDTRNLIGE | 1.41 ± 0.47 |
| QSFNGS | -1.2 ± 0.54 |
| QSLHTSANSLLNWNFMSLLT | 0.871 ± 0.29 |
| QSNRKYGETHWFSTCNMHVL | 0.533 ± 0.45 |
| QSNSSRLHSCRGAIVICI | 6.751 ± 0.066 |
| QSSTYLSPRLHTISDIPYNF | -0.781 ± 0.38 |
| QSTFFCTLQLGSKYFKECLS | -1.22 ± 0.61 |
| QSTWSHGFKGRSVWRGLTKG | 1.66 ± 0.36 |

| Substance | amyloid nucleation score |
| --- | --- |
| QSVKLFNSPTSAELILGTKE | -0.982 ± 0.78 |
| QTLAYTSDKTS | 0.549 ± 0.45 |
| QTRRIRYDWDAPQCGWVVTM | 3.82 ± 0.079 |
| QTRTRNLLIAQVECRGRSSW | inactive |
| QTTVHLTSLHMAGSLCV | -0.021 ± 0.79 |
| QVIDTSPRHVMVIYVP | -0.307 ± 0.76 |
| QVKMSSYFVLFFAGPPHVSI | -1.13 ± 0.76 |
| QVMMIWCIWDY | 6.949 ± 0.042 |
| QVWFYIVVMLVTLTGLGQVG | 1.16 ± 0.61 |
| QVWPLCLVAGSSFGRRGVTG | 1.18 ± 0.29 |
| QWGDYIGAASMW | -0.767 ± 0.49 |
| QYALLVY | inactive |
| QYIPMSLNCQLQYGSHAGQE | -0.216 ± 0.49 |
| QYKIVVELYMLYNISKNVEG | 2.14 ± 0.16 |
| RADVRMFLTRGLKVDFG | -0.322 ± 0.49 |
| RAIFR | -0.686 ± 0.56 |
| RALCTKVRTLLCFYLGVLWS | 0.903 ± 0.74 |
| RALVRLHSDYMLWRFMVADS | 0.399 ± 0.42 |
| RALVSRCRVCADKSPASSCD | -0.411 ± 0.45 |
| RANFSGTKLLVNTECLWLSV | 2.35 ± 0.17 |
| RAVLFAVVKQM | 0.874 ± 0.42 |
| RAWSIAWYAYPFLIREFECN | 3.35 ± 0.079 |
| RCGCHDCVFLR | -0.202 ± 0.46 |
| RCHRNFVSWVEDLGRRSIGV | 4.53 ± 0.051 |
| RCILASAGWAIVGKNCEAPQ | 0.647 ± 0.26 |

| Substance | amyloid nucleation score |
| --- | --- |
| RCLNQTTYRNNSPCAVLWCM | 7.028 ± 0.058 |
| RCLWYKACMRPF | inactive |
| RCMGPIVPFDVNS | -0.704 ± 0.33 |
| RCPLHPLGGLYTIWSDYLRL | 5.82 ± 0.075 |
| RCRISVWVVGSCLSRMYG | 4.29 ± 0.056 |
| RCRPFFPRNVFSRVENIYHA | -0.602 ± 1.1 |
| RCRVFYQNHIYLGFLKCNQS | 1.42 ± 0.16 |
| RCSCPANGFLMGQLAVMS | 2.83 ± 0.12 |
| RCSTFFEYSQTIPHYLVTLF | -0.91 ± 0.44 |
| RCVGNYIWIKAFPMCLMTRC | -0.825 ± 1.1 |
| RCYPS | 0.277 ± 0.17 |
| RDDVRRVRPLGSVVQDDSDG | 0.882 ± 0.18 |
| RDNCVWYTGHSLKRMRIAKA | inactive |
| RDQFTISETRNAVDMDWKSK | 0.007 ± 1.1 |
| RDSTVFKIYCWPYNN | 6.493 ± 0.05 |
| RDSVIYCCMMMKGTCAWLYL | inactive |
| RDVFVLCWDFFMVERCRDRC | 5.85 ± 0.072 |
| RDVLTDNQNAIRLLRGVSAY | 0.298 ± 0.19 |
| RDVWVRGLACLVASSTMHSS | 0.999 ± 0.32 |
| RECLRLDGGPMNWV | 0.192 ± 1 |
